Key:
VEGF [1] = biological target: T1, VEGF (UniProt P15692-4 27-191, limits assumed); experiment: KinExA 3200, calculated as Kd x kon, 37 C
T1 construct: also called VEGF-A

VEGF [2] = biological target: T1, VEGF; experiment: KinExA 3200, kinetic measurement, 37 C
human IL-6 [3] = biological target: T2, human IL-6 (human, UniProt P05231 30-212); experiment: KinExA 3200, kinetic measurement, 37 C
human IL-6 [4] = biological target: T2, human IL-6; experiment: KinExA 3200, in solution, 37 C
VEGF [5] = biological target: T1, VEGF; experiment: KinExA 3200, in solution, 37 C
human IL-6 [6] = biological target: T2, human IL-6; experiment: KinExA 3200, calculated as Kd x kon, 37 C

T1 sequence (P15692 other isoform, or with tags, fused parts or gaps limits assumed): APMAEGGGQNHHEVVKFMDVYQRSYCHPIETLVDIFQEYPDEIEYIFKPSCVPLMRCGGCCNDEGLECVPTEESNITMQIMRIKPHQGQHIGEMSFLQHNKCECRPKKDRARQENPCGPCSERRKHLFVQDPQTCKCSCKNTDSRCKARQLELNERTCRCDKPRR
T2 sequence (P05231 30-212 limits assumed): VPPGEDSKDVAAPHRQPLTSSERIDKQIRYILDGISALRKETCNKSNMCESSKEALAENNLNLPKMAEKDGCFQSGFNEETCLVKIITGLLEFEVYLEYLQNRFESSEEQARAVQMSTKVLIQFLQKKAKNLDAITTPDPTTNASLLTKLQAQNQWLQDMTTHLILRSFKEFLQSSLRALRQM

koff (VEGF [1]) [s⁻¹]	kon (VEGF [2]) [M⁻¹ s⁻¹]	kon (human IL-6 [3]) [M⁻¹ s⁻¹]	Kd (human IL-6 [4]) [pM]	Kd (VEGF [5]) [pM]	koff (human IL-6 [6]) [s⁻¹]	Binder
8.49e-05	4.04e+07	1.15e+07	21.1	2.1	0.000242	VEGFR-AntiIL6 (other, VEGF trap (VEGFR1 domain 2 - VEGFR2 domain 3) fused by a GS linker to the N-terminus of the anti-IL-6 IgG1 heavy chain; also called VEGF Trap-anti-IL6 antibody fusion) heavy: SDTGRPFVEMYSEIPEIIHMTEGRELVIPCRVTSPNITVTLKKFPLDTLIPDGKRIIWDSRKGFIISNATYKEIGLLTCEATVNGHLYKTNYLTHRQTNTIIDVVLSPSHGIELSVGEKLVLNCTARTELNVGIDFNWEYPSSKHQHKKLVNRDLKTQSGSEMKKFLSTLTIDGVTRSDQGLYTCAASSGLMTKKNSTFVRVHEKGGGGSGGGGSEVQLVESGGGLVQPGGSLRLSCAASGFTFSPFAMHWVRQAPGKGLEWVAKISPGGSWTYYSDTVTDRFTFSLDTSKSTAYLQMNSLRAEDTAVYYCARQAWGYYALDIWGQGTLVTVSSASTKGPSVFPLAPSSKSTSGGTAALGCLVKDYFPEPVTVSWNSGALTSGVHTFPAVLQSSGLYSLSSVVTVPSSSLGTQTYICNVNHKPSNTKVDKKVEPKSCDKTHTCPPCPAPEAAGAPSVFLFPPKPKDTLMISRTPEVTCVVVDVSHEDPEVKFNWYVDGVEVHNAKTKPREEQYNSTYRVVSVLTVLHQDWLNGKEYKCKVSNKALPAPIEKTISKAKGQPREPQVYTLPPSREEMTKNQVSLTCLVKGFYPSDIAVEWESNGQPENNYKTTPPVLDSDGSFFLYSKLTVDKSRWQQGNVFSCSVMHEALHNHYTQKSLSCSPGK light: DIQLTQSPSSLSASVGDRVTITCSASISVSYLYWYQQKPGKAPKLLIYDDSSLASGVPSRFSGSGSGTDFTLTISSLQPEDFATYYCQQWSGYPYTFGQGTKVEIKRTVAAPSVFIFPPSDEQLKSGTASVVCLLNNFYPREAKVQWKVDNALQSGNSQESVTEQDSKDSTYSLSSTLTLSKADYEKHKVYACEVTHQGLSSPVTKSFNRGEC
3.83e-06	3.75e+06	8e+06	12.1	1.02	9.66e-05	VEGFR-AntiIL6-OG1802 (other, OG1802 phosphorylcholine biopolymer (about 794 kDa) on Cys L443C (EU numbering; 660C in SEQ ID NO: 170) by maleimide; one polymer per molecule, Polymer conjugate of m3; also called VEGFR-AntiIL6 bioconjugate) heavy: SDTGRPFVEMYSEIPEIIHMTEGRELVIPCRVTSPNITVTLKKFPLDTLIPDGKRIIWDSRKGFIISNATYKEIGLLTCEATVNGHLYKTNYLTHRQTNTIIDVVLSPSHGIELSVGEKLVLNCTARTELNVGIDFNWEYPSSKHQHKKLVNRDLKTQSGSEMKKFLSTLTIDGVTRSDQGLYTCAASSGLMTKKNSTFVRVHEKGGGGSGGGGSEVQLVESGGGLVQPGGSLRLSCAASGFTFSPFAMHWVRQAPGKGLEWVAKISPGGSWTYYSDTVTDRFTFSLDTSKSTAYLQMNSLRAEDTAVYYCARQAWGYYALDIWGQGTLVTVSSASTKGPSVFPLAPSSKSTSGGTAALGCLVKDYFPEPVTVSWNSGALTSGVHTFPAVLQSSGLYSLSSVVTVPSSSLGTQTYICNVNHKPSNTKVDKKVEPKSCDKTHTCPPCPAPEAAGAPSVFLFPPKPKDTLMISRTPEVTCVVVDVSHEDPEVKFNWYVDGVEVHNAKTKPREEQYNSTYRVVSVLTVLHQDWLNGKEYKCKVSNKALPAPIEKTISKAKGQPREPQVYTLPPSREEMTKNQVSLTCLVKGFYPSDIAVEWESNGQPENNYKTTPPVLDSDGSFFLYSKLTVDKSRWQQGNVFSCSVMHEALHNHYTQKSLSCSPGK light: DIQLTQSPSSLSASVGDRVTITCSASISVSYLYWYQQKPGKAPKLLIYDDSSLASGVPSRFSGSGSGTDFTLTISSLQPEDFATYYCQQWSGYPYTFGQGTKVEIKRTVAAPSVFIFPPSDEQLKSGTASVVCLLNNFYPREAKVQWKVDNALQSGNSQESVTEQDSKDSTYSLSSTLTLSKADYEKHKVYACEVTHQGLSSPVTKSFNRGEC
